The target of test [1] is T1, yeast E2 Ubc9 (wild type) (yeast, UniProt P50623 1-157).
T1 sequence (looked up): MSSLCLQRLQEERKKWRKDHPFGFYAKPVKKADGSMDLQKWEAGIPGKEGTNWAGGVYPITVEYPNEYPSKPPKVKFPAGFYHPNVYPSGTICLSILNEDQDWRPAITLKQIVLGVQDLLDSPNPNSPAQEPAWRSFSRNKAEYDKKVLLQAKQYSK
The test can be described thus: fluorescence polarisation.

For test [2], the target named is T2, yeast E3 active fragment Siz1^(167–465) (yeast, UniProt Q04195 167-465).
T2 sequence (looked up): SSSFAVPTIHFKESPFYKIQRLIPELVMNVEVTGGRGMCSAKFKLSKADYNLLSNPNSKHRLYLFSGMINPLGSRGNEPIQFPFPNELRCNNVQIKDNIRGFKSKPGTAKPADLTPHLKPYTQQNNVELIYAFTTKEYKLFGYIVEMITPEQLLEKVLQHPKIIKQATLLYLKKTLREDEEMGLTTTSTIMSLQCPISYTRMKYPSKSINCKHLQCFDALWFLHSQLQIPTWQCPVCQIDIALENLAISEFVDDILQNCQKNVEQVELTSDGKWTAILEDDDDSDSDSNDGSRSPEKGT
The test can be described thus: competitive inhibition of multiple turnover SUMO conjugation.

Test [3] addresses T2, yeast E3 active fragment Siz1^(167–465). The description is as above. The source holds these as a separate data set.

Like-named read-outs stand apart in the source and are kept apart here.

B1: Smt3^K11C-Alexa488 (natural protein)
chain: SDSEVNQEACPEVKPEVKPETHINLKVSDGSSEIFFKIKKTTPLRRLMEAFAKRQGKEMDSLRFLYDGIRIQADQTPEDLDMEDNDIIEAHREQIGG
modifications: Alexa Fluor 488 maleimide on Cys11
As to B1, in test [1], the dissociation constant (Kd) – broadly, the concentration at which binding is half-saturated – is 24.6 nM.

B2: Ubc9^C93K-Smt3 thioester mimetic (complex)
chain 1: MSSLCLQRLQEERKKWRKDHPFGFYAKPVKKADGSMDLQKWEAGIPGKEGTNWAGGVYPITVEYPNEYPSKPPKVKFPAGFYHPNVYPSGTIKLSILNEDQDWRPAITLKQIVLGVQDLLDSPNPNSPAQEPAWRSFSRNKAEYDKKVLLQAKQYSK
chain 2: SDSEVNQEAKPEVKPEVKPETHINLKVSDGSSEIFFKIKKTTPLRRLMEAFAKRQGKEMDSLRFLYDGIRIQADQTPEDLDMEDNDIIEAHREQIGG
modifications: Lys93 linked to the C-terminus of Smt3 (stable peptide bond) | C-terminus linked to Lys93 of Ubc9
In the case of B2, the Ki (usually the dissociation constant of the complex between target and ligand, obtained from inhibition or displacement) in test [2] amounted to 1440 nM; in test [3], 2050 nM.

B3: Ubc9^A129K/K153R-Smt3 thioester mimetic (complex)
chain 1: MSSLCLQRLQEERKKWRKDHPFGFYAKPVKKADGSMDLQKWEAGIPGKEGTNWAGGVYPITVEYPNEYPSKPPKVKFPAGFYHPNVYPSGTICLSILNEDQDWRPAITLKQIVLGVQDLLDSPNPNSPKQEPAWRSFSRNKAEYDKKVLLQARQYSK
chain 2: SDSEVNQEAKPEVKPEVKPETHINLKVSDGSSEIFFKIKKTTPLRRLMEAFAKRQGKEMDSLRFLYDGIRIQADQTPEDLDMEDNDIIEAHREQIGG
modifications: Lys129 linked to the C-terminus of Smt3 | C-terminus linked to Lys129 of Ubc9
On to B3, for which the inhibitory constant (Ki) turned out to be 3150 nM in test [2] and 4330 nM in test [3].

The values are drawn from paper PMC5019495 (Nature, 2016).
